The numbers were not newly measured in paper PMC10611464, which cites them from elsewhere.

Data set [1] concerns the target PACAP (Homo sapiens) (UniProt P18509).
Data set [2] concerns the target VIP (Homo sapiens) (UniProt P01282).
The target in data set [3] is PACAP (Homo sapiens) (UniProt P18509). This is another data set of the same source.
Data set [4] has as its target VIP (Homo sapiens) (UniProt P01282). The source holds these as a separate data set.
Data set [5] has as its target PACAP (Homo sapiens) (UniProt P18509). The source holds these as a separate data set.

Where two headings read alike, the source gives them in different places.

Chain of UniProt P18509 (P18509 82-129): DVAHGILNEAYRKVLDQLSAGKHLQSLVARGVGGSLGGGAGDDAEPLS
Chain of UniProt P01282 (P01282 125-152): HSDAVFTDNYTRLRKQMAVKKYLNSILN

On to PAC1 (from UniProt P41586), for which the dissociation constant (Kd) in the data set with PACAP (Homo sapiens) [1] was 0.5 nM.
In the case of VPAC1 (from UniProt P32241), the Kd in the data set with VIP (Homo sapiens) [2] and with PACAP (Homo sapiens) [3] was 1 nM throughout.
For VPAC2 (from UniProt P41587), the Kd with VIP (Homo sapiens) [4] and in the data set with PACAP (Homo sapiens) [5] was 1 nM throughout.

As a reminder, the Kd is a measure of binding affinity in units of concentration.
